EC50 of TLR4 activation in HEK-Blue hTLR4 reporter cells (SEAP production), S100A9 0.5-50 nM, 24 h data for 1 molecule are collected here from publication PMC9599826, “Selecting Multitarget Peptides for Alzheimer’s Disease” (Biomolecules, 2022).

The target of the experiment is Recombinant human TLR4/myeloid differentiation factor 2 (MD-2) complex (human) (UniProt O00206).
Sequence of Recombinant human TLR4/myeloid differentiation factor 2 (MD-2) complex (human) (O00206 24-631, chain 1 of 2): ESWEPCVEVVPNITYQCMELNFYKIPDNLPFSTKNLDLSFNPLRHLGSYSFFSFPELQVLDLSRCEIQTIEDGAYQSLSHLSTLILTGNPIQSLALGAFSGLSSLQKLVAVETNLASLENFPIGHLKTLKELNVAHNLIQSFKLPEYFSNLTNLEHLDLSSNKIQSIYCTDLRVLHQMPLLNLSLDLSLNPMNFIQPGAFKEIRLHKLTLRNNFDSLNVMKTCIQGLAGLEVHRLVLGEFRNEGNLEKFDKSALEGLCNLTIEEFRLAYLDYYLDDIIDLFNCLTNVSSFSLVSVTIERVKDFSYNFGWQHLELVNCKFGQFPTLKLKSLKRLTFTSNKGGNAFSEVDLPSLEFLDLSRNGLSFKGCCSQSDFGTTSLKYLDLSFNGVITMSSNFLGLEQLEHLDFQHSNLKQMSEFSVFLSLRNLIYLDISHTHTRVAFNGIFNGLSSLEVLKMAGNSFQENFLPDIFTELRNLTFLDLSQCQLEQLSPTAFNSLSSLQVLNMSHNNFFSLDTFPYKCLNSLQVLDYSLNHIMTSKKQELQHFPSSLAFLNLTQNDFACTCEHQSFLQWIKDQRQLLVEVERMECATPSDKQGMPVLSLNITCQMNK
Sequence of Recombinant human TLR4/myeloid differentiation factor 2 (MD-2) complex (human) (Q9Y6Y9 19-160, chain 2 of 2, further chain): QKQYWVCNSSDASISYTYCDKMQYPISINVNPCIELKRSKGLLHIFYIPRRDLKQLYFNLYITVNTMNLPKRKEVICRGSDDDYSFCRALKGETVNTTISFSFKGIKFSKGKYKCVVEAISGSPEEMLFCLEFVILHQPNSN

B1: Recombinant human calcium binding protein S100A9 (natural protein)
chain: MTCKMSQLERNIETIINTFHQYSVKLGHPDTLNQGEFKELVRKDLQNFLKKENKNEKVIEHIMEDLDTNADKQLSFEEFIMLMARLTWASHEKMHEGDEGPGHHHKPGLGEGTP
B1: the EC50 of TLR4 activation in HEK-Blue hTLR4 reporter cells (SEAP production), S100A9 0.5-50 nM, 24 h came out at 0.7 nM.
